Laboratory results: paper PMC7935978

System: FUS-Gal4
Experiment: single-molecule (DNA curtains, koff/kon)
Conditions: condensate-DNA interaction; protein label and DNA substrate inferred; 40 mM Tris-HCl pH 7.5, 150 mM KCl, 2 mM MgCl2, 1 mM DTT, 0.2 mg/ml BSA; EMSA 30 min at room temperature

With Lambda DNA + 7x Gal4 sites the Kd was 0.8 nM.
